Biological target: RBD of the recombinantly expressed S protein (SARS-CoV-2) (UniProt P0DTC2)
Assay: ELISA, plate coated with RBD at 0.01 µg/ml, HRP goat anti-human IgG Fc

Substance: Irrelevant antibody
- OD450 reading: 0.006 OD450

— US20230174628A1
